PMC7046147, “Impaired DNA-binding affinity of novel PAX6 mutations”

B1: CD19 A-ins (dsDNA)
DNA 1: GAATGGGGCACTGAGGCGTGACCACCGC
DNA 2: GCGGTGGTCACGCCTCAGTGCCCCATTC
B2: P6CON (dsDNA)
DNA 1: AAATTTTCACGCTTGAGTTCACAGCT
DNA 2: AGCTGTGAACTCAAGCGTGAAAATTT
B3: P6B (dsDNA)
DNA 1: AAGCATTTTCACGCATGAGTGCACAG
DNA 2: TTCTGTGCACTCATGCGTGAAAATGC

Assays:
Experiment in all cases: ITC; ITC (iTC200) at 25 °C in buffer C (composition not given; protein stored in 25 mM Hepes pH 7.5, 150 mM NaCl, 5 mM b-ME); 20 uM protein in cell, 200 uM DNA in syringe, one-site model
PAX6 PD S74G = PAX6 PD S74G (human, UniProt P26367 4-136, S74G); settings: protein: recombinant
PAX6 PD S74G, sequence (P26367 4-136 S74G): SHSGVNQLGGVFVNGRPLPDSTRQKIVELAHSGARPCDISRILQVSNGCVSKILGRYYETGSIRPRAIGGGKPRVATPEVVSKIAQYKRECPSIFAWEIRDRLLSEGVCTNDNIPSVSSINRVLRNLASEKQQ

PAX6 PD G64V = PAX6 PD G64V (human, UniProt P26367 4-136, G64V); settings: protein: recombinant
PAX6 PD G64V, sequence (P26367 4-136 G64V): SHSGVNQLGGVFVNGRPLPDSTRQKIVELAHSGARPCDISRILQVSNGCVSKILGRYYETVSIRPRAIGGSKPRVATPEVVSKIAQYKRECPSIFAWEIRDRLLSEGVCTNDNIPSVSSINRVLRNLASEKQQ

PAX6 PD G72S = PAX6 PD G72S (human, UniProt P26367 4-136, G72S); settings: protein: recombinant
PAX6 PD G72S, sequence (P26367 4-136 G72S): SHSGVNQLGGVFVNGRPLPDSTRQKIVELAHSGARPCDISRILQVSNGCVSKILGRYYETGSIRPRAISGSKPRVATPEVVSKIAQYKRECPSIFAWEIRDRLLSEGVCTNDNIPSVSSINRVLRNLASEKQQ

PAX6 paired domain WT = PAX6 paired domain WT (human, UniProt P26367 4-136); settings: protein: recombinant, tags: N-terminal His6 removed by TEV
PAX6 paired domain WT, sequence (P26367 4-136): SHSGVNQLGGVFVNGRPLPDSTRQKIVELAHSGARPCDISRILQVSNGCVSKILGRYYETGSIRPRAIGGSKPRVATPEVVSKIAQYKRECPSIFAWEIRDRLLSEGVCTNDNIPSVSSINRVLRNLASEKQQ

PAX6 PD G73D = PAX6 PD G73D (human, UniProt P26367 4-136, G73D); settings: protein: recombinant
PAX6 PD G73D, sequence (P26367 4-136 G73D): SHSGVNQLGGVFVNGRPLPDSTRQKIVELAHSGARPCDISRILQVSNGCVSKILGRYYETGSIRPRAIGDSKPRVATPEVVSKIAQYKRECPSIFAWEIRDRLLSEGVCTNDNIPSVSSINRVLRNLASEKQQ

PAX6 PD G72C = PAX6 PD G72C (human, UniProt P26367 4-136, G72C); settings: protein: recombinant, tags: N-terminal His6 removed by TEV
PAX6 PD G72C, sequence (P26367 4-136 G72C): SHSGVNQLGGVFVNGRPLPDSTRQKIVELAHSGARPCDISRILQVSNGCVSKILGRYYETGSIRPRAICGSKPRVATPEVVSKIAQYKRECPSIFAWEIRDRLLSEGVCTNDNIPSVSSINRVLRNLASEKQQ

PAX6 PD P76R = PAX6 PD P76R (human, UniProt P26367 4-136, P76R); settings: protein: recombinant; 5' overhang 2 nt on each strand (AA/TT), 24 bp
PAX6 PD P76R, sequence (P26367 4-136 P76R): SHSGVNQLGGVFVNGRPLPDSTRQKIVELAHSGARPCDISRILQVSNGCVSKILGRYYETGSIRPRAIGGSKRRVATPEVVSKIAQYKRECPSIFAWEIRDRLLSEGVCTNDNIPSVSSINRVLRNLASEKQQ

[1] = 5' overhang 2 nt on each strand (AA/TT), 24 bp

Binder | Kd (PAX6 PD S74G; blunt) [nM] | Kd (PAX6 PD G64V; blunt) [nM] | Kd (PAX6 PD G72S; blunt) [nM] | Kd (PAX6 paired domain WT; blunt) [nM] | binding result (PAX6 PD G73D; blunt) | Kd (PAX6 PD G72C; blunt) [nM] | Kd (PAX6 PD G73D; blunt) [nM] | Kd (PAX6 PD P76R) [nM] | Kd (PAX6 PD S74G; [1]) [nM] | Kd (PAX6 PD G64V; [1]) [nM] | Kd (PAX6 PD G72S; [1]) [nM] | Kd (PAX6 paired domain WT; [1]) [nM] | Kd (PAX6 PD G73D; [1]) [nM] | Kd (PAX6 PD G72C; [1]) [nM]
B1 | 943 ± 31 | 2170 ± 162 | 980 ± 43 | 952 ± 78 | no binding | 5020 ± 360 |  |  |  |  |  |  |  | 
B2 | 1040 ± 45 | 1290 ± 78 | 943 ± 37 | 925 ± 47 |  | 1410 ± 110 | 961 ± 48 |  |  |  |  |  |  | 
B3 |  |  |  |  |  |  |  | 740 ± 93 | 699 ± 180 | 2520 ± 1020 | 1200 ± 130 | 411 ± 68 | 489 ± 128 | 579 ± 370
